# Laboratory results reported in US20250345413A1 (VIRAVAXX, published 2025).
# B1: cysteine-containing, His-tagged recombinant Parietaria allergen, Par j 2 (other)
# chain: EEACGKVVQDIMPCLHFVKGEEKEPSKECCSGTKKLSEEVKTTEQKREACKCIVRATKGISGIKNELVAEVPKKCDIKTTLPPITADFDCSKIQSTIFRGYY
# notes: also called negative control protein
# Biological target: T1, human ACE2 protein (GenScript) (human, UniProt Q9BYF1 18-740)
# T1 construct: also called angiotensin-converting enzyme 2; hACE2
# Assay: ELISA, plate-bound ACE2, detection by anti-His antibody
# T1 sequence (Q9BYF1 18-740 limits assumed): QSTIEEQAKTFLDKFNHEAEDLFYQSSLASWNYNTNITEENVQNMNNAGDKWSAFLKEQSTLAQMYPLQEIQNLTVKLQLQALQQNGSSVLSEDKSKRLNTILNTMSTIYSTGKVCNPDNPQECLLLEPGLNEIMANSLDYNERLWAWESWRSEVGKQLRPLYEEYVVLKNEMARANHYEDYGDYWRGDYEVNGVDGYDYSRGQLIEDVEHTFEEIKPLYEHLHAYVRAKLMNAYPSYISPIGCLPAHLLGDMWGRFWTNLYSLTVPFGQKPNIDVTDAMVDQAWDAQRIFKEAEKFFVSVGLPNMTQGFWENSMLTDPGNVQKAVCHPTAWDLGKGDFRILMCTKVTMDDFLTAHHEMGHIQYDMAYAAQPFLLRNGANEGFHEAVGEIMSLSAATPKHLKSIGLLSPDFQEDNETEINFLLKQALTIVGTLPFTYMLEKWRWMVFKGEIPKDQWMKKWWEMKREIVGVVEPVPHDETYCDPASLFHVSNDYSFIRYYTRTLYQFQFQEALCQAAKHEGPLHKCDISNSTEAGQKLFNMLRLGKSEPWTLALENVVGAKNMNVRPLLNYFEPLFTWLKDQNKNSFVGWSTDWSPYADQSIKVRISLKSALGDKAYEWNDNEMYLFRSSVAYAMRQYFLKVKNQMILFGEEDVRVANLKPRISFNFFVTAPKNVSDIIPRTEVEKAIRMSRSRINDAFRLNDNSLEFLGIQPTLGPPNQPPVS
binder,measurement,value
B1,binding result,no binding
